Data on two molecules can be found in US20260217793A1 (Chugai, published 2026).

The target of one experiment is T1, human FcγRIIb (human, UniProt P31994 43-217).
T1 sequence (looked up): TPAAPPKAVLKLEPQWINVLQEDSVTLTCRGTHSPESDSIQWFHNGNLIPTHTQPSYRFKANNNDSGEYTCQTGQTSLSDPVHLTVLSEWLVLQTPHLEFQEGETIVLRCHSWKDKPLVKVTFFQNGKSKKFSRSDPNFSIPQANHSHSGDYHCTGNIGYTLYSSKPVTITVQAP
The experiment is described as follows: SPR, amount bound per captured antibody. On the technique in general: SPR reads the build-up and loss of mass on a sensor chip optically.

The next experiment addresses T2, human FcγRIIa type R (human, UniProt P12318 34-217).
T2 sequence (looked up): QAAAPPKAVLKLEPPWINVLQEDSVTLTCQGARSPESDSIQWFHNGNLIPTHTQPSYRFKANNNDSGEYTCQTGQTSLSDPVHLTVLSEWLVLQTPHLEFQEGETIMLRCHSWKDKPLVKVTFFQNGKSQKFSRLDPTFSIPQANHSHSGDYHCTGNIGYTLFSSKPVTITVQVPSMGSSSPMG
The experiment can be described thus: SPR, amount bound per captured antibody.

The target of a further experiment is FcγRIIIa type V (human, UniProt P08637 17-208). The experiment can be described thus: SPR.
In another experiment the target is FcγRIa (human, UniProt P12314 16-292). The experiment is described as follows: SPR.
The next experiment deals with T3, FcγRIIb (human, UniProt P31994 43-217).
T3 sequence (looked up): T1 sequence (looked up)
The experiment can be described thus: SPR.

A further experiment addresses T4, FcγRIIa type H (human, UniProt P12318 34-217).
T4 sequence (looked up): T2 sequence (looked up) with R134H
The experiment can be described thus: SPR.

Another experiment addresses T5, FcγRIIa type R (human, UniProt P12318 34-217).
T5 sequence (looked up): T2 sequence (looked up)
The experiment is described as follows: SPR.

Substitutions are numbered along the chain they refer to.

FcγRIa, sequence (P12314 16-292): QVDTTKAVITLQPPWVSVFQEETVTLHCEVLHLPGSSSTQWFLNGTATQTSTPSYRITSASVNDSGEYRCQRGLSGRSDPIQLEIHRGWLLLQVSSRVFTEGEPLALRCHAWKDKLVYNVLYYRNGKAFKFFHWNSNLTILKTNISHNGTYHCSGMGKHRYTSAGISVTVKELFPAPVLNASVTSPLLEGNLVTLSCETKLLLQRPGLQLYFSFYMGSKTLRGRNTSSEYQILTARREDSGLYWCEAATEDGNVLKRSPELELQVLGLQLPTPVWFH
FcγRIIIa type V, sequence (P08637 17-208 F176V): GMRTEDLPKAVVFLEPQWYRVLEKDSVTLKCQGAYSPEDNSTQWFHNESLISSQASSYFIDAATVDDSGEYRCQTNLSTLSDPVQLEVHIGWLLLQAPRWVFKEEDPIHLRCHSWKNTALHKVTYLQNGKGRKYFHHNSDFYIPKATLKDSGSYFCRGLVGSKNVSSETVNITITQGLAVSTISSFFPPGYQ

B1: IL6R-F652/IL6R-L (antibody, human IgG1, kappa)
heavy: QVQLQESGPGLVKPSETLSLTCAVSGHSISHDHAWSWVRQPPGEGLEWIGFISYSGITNYNPSLQGRVTISRDNSKNTLYLQMNSLRAEDTAVYYCARSLARTTAMDYWGEGTLVTVSSASTKGPSVFPLAPSSKSTSGGTAALGCLVKDYFPEPVTVSWNSGALTSGVHTFPAVLQSSGLYSLSSVVTVPSSSLGTQTYICNVNHKPSNTKVDKKVEPKSCDKTHTCPPCPAPELLGGDSVFLFPPKPKDTLYISRTPEVTCVVVDVSHEDPEVKFNWYVDGVEVHNAKTKPREEQYNSTYRVVSVLTVLHQDWLNGKEYKCKVSNKALPAPIEKTISKAKGQPREPQVYTLPPSRDELTKNQVSLTCLVKGFYPSDIAVEWESNGQPENNYKTTPPVLDSDGSFFLYSKLTVDKSRWQQGNVFSCSVMHEALHYHYTQKSLSLSP
light: not shown
On to B1, for which the “relative binding activity (IL6R-F652/IL6R-L = 100)” value in the experiment with human FcγRIIb and with human FcγRIIa type R was 100 each time.

B2: IL6R-BP198/IL6R-L (antibody, human IgG1, kappa)
heavy: B1 heavy with E235D, L236Y, Y254M, H270D, P273G, K328A, A332K, Y436N, K441E
light: not shown
As to B2, the relative binding activity with FcγRIIIa type V is 157 % of control; in the experiment with FcγRIa it was 104 % of control; with FcγRIIb, 164 % of control; with FcγRIIa type H, 188 % of control; with FcγRIIa type R, 449 % of control.
